Positions count from the first letter of the chain named. Names and notes keep the numbering of the source.
B1: VH SEQ ID NO 618 / VL SEQ ID NO 478 (antibody, IgG4, V domains shown)
VH: QVQLQESGPGLVKPSQTLSLTCTVSGYSISSDSAWSWIRQFPGKGLEWIGYIQYSGSTNYNPSLKSRVTISRDTSKNQFSLKLSSVTAADTAVYYCARSVNYYGNSFAVGPWGQGTLVTVSS
VL: EIVLTQSPATLSLSPGERATLSCRASQGVSDYLHWYQQKPGQAPRLLIKYASQPATGIPARFSGSGSGTDFTLTISSLEPEDFAVYYCQQGHSFPLTFGQGTKLEIK
notes: humanized 11F2; IgG4 S228P/kappa
B2: VH SEQ ID NO 626 / VL SEQ ID NO 350 (antibody, IgG4, V domains shown)
VH: B1 VH with F41P
VL: B1 VL with V29I, A51T, Q90N, Q100A, I106L
notes: as for B1
B3: VH SEQ ID NO 626 / VL SEQ ID NO 430 (antibody, IgG4, V domains shown)
VH: B1 VH with F41P
VL: B1 VL with H34A, A84G, Q90N
notes: as for B1
B4: VH SEQ ID NO 626 / VL SEQ ID NO 334 (antibody, IgG4, V domains shown)
VH: B1 VH with F41P
VL: B1 VL with V29I, Q90N
notes: as for B1
B5: VH SEQ ID NO 626 / VL SEQ ID NO 414 (antibody, IgG4, V domains shown)
VH: B1 VH with F41P
VL: B1 VL with H34A, Q90N
notes: as for B1
B6: VH SEQ ID NO 634 / VL SEQ ID NO 446 (antibody, IgG4, V domains shown)
VH: B1 VH with F41P, P111Y
VL: B1 VL with H34A, A51T, Q90N
notes: as for B1
B7: VH SEQ ID NO 634 / VL SEQ ID NO 406 (antibody, IgG4, V domains shown)
VH: B1 VH with F41P, P111Y
VL: B1 VL with H34A, Q90N, Q100A
notes: as for B1
B8: VH SEQ ID NO 634 / VL SEQ ID NO 390 (antibody, IgG4, V domains shown)
VH: B1 VH with F41P, P111Y
VL: B1 VL with H34A, Q42E, Q90N
notes: as for B1
B9: VH SEQ ID NO 626 / VL SEQ ID NO 462 (antibody, IgG4, V domains shown)
VH: B1 VH with F41P
VL: B1 VL with Q90N, Q100A
notes: as for B1
B10: VH SEQ ID NO 634 / VL SEQ ID NO 438 (antibody, IgG4, V domains shown)
VH: B1 VH with F41P, P111Y
VL: B1 VL with H34A, F83V, Q90N
notes: as for B1
B11: VH SEQ ID NO 626 / VL SEQ ID NO 502 (antibody, IgG4, V domains shown)
VH: B1 VH with F41P
VL: B1 VL with A51T, Q90N
notes: as for B1
B12: VH SEQ ID NO 634 / VL SEQ ID NO 422 (antibody, IgG4, V domains shown)
VH: B1 VH with F41P, P111Y
VL: B1 VL with H34A
notes: as for B1
B13: VH SEQ ID NO 626 / VL SEQ ID NO 318 (antibody, IgG4, V domains shown)
VH: B1 VH with F41P
VL: B1 VL with V29I, Q42E, A51T, Q90N
notes: as for B1
B14: VH SEQ ID NO 634 / VL SEQ ID NO 366 (antibody, IgG4, V domains shown)
VH: B1 VH with F41P, P111Y
VL: B1 VL with V29L, H34A, Q42E, Q90N
notes: as for B1
B15: VH SEQ ID NO 626 / VL SEQ ID NO 478 (antibody, IgG4, V domains shown)
VH: B1 VH with F41P
VL: B1 VL
notes: as for B1
B16: VH SEQ ID NO 626 / VL SEQ ID NO 366 (antibody, IgG4, V domains shown)
VH: B1 VH with F41P
VL: B1 VL with V29L, H34A, Q42E, Q90N
notes: as for B1
B17: VH SEQ ID NO 626 / VL SEQ ID NO 310 (antibody, IgG4, V domains shown)
VH: B1 VH with F41P
VL: B1 VL with V29I, H34A, Q90N
notes: as for B1
B18: VH SEQ ID NO 634 / VL SEQ ID NO 430 (antibody, IgG4, V domains shown)
VH: B1 VH with F41P, P111Y
VL: B1 VL with H34A, A84G, Q90N
notes: as for B1
B19: VH SEQ ID NO 626 / VL SEQ ID NO 446 (antibody, IgG4, V domains shown)
VH: B1 VH with F41P
VL: B1 VL with H34A, A51T, Q90N
notes: as for B1
B20: VH SEQ ID NO 634 / VL SEQ ID NO 310 (antibody, IgG4, V domains shown)
VH: B1 VH with F41P, P111Y
VL: B1 VL with V29I, H34A, Q90N
notes: as for B1
B21: VH SEQ ID NO 634 / VL SEQ ID NO 358 (antibody, IgG4, V domains shown)
VH: B1 VH with F41P, P111Y
VL: B1 VL with V29I, A51T, Q90N
notes: as for B1
B22: VH SEQ ID NO 634 / VL SEQ ID NO 350 (antibody, IgG4, V domains shown)
VH: B1 VH with F41P, P111Y
VL: B1 VL with V29I, A51T, Q90N, Q100A, I106L
notes: as for B1
B23: VH SEQ ID NO 634 / VL SEQ ID NO 374 (antibody, IgG4, V domains shown)
VH: B1 VH with F41P, P111Y
VL: B1 VL with V29L, H34A, A51T, Q90N
notes: as for B1
B24: VH SEQ ID NO 626 / VL SEQ ID NO 382 (antibody, IgG4, V domains shown)
VH: B1 VH with F41P
VL: B1 VL with V29L, Q42E, Q90N
notes: as for B1
B25: VH SEQ ID NO 618 / VL SEQ ID NO 502 (antibody, IgG4, V domains shown)
VH: B1 VH
VL: B1 VL with A51T, Q90N
notes: as for B1
B26: VH SEQ ID NO 626 / VL SEQ ID NO 454 (antibody, IgG4, V domains shown)
VH: B1 VH with F41P
VL: B1 VL with Q42E, Q90N
notes: as for B1
B27: VH SEQ ID NO 634 / VL SEQ ID NO 334 (antibody, IgG4, V domains shown)
VH: B1 VH with F41P, P111Y
VL: B1 VL with V29I, Q90N
notes: as for B1
B28: VH SEQ ID NO 626 / VL SEQ ID NO 438 (antibody, IgG4, V domains shown)
VH: B1 VH with F41P
VL: B1 VL with H34A, F83V, Q90N
notes: as for B1
B29: VH SEQ ID NO 634 / VL SEQ ID NO 326 (antibody, IgG4, V domains shown)
VH: B1 VH with F41P, P111Y
VL: B1 VL with V29I, Q42E, A51T, A84G, Q90N, Q100A, I106L
notes: as for B1
B30: VH SEQ ID NO 634 / VL SEQ ID NO 318 (antibody, IgG4, V domains shown)
VH: B1 VH with F41P, P111Y
VL: B1 VL with V29I, Q42E, A51T, Q90N
notes: as for B1
B31: VH SEQ ID NO 634 / VL SEQ ID NO 398 (antibody, IgG4, V domains shown)
VH: B1 VH with F41P, P111Y
VL: B1 VL with H34A, Q42E, A51T, Q90N
notes: as for B1
B32: VH SEQ ID NO 634 / VL SEQ ID NO 414 (antibody, IgG4, V domains shown)
VH: B1 VH with F41P, P111Y
VL: B1 VL with H34A, Q90N
notes: as for B1
B33: VH SEQ ID NO 626 / VL SEQ ID NO 486 (antibody, IgG4, V domains shown)
VH: B1 VH with F41P
VL: B1 VL with A84G, Q90N
notes: as for B1
B34: VH SEQ ID NO 626 / VL SEQ ID NO 326 (antibody, IgG4, V domains shown)
VH: B1 VH with F41P
VL: B1 VL with V29I, Q42E, A51T, A84G, Q90N, Q100A, I106L
notes: as for B1
B35: VH SEQ ID NO 626 / VL SEQ ID NO 390 (antibody, IgG4, V domains shown)
VH: B1 VH with F41P
VL: B1 VL with H34A, Q42E, Q90N
notes: as for B1
B36: VH SEQ ID NO 626 / VL SEQ ID NO 398 (antibody, IgG4, V domains shown)
VH: B1 VH with F41P
VL: B1 VL with H34A, Q42E, A51T, Q90N
notes: as for B1
B37: VH SEQ ID NO 634 / VL SEQ ID NO 342 (antibody, IgG4, V domains shown)
VH: B1 VH with F41P, P111Y
VL: B1 VL with V29I, A51T, T69R, Q90N, Q100A, I106L
notes: as for B1
B38: VH SEQ ID NO 626 / VL SEQ ID NO 494 (antibody, IgG4, V domains shown)
VH: B1 VH with F41P
VL: B1 VL with F83V, Q90N
notes: as for B1
B39: VH SEQ ID NO 618 / VL SEQ ID NO 486 (antibody, IgG4, V domains shown)
VH: B1 VH
VL: B1 VL with A84G, Q90N
notes: as for B1
B40: VH SEQ ID NO 626 / VL SEQ ID NO 342 (antibody, IgG4, V domains shown)
VH: B1 VH with F41P
VL: B1 VL with V29I, A51T, T69R, Q90N, Q100A, I106L
notes: as for B1
B41: VH SEQ ID NO 626 / VL SEQ ID NO 406 (antibody, IgG4, V domains shown)
VH: B1 VH with F41P
VL: B1 VL with H34A, Q90N, Q100A
notes: as for B1
B42: VH SEQ ID NO 626 / VL SEQ ID NO 422 (antibody, IgG4, V domains shown)
VH: B1 VH with F41P
VL: B1 VL with H34A
notes: as for B1
B43: VH SEQ ID NO 618 / VL SEQ ID NO 494 (antibody, IgG4, V domains shown)
VH: B1 VH
VL: B1 VL with F83V, Q90N
notes: as for B1
B44: VH SEQ ID NO 626 / VL SEQ ID NO 358 (antibody, IgG4, V domains shown)
VH: B1 VH with F41P
VL: B1 VL with V29I, A51T, Q90N
notes: as for B1
B45: VH SEQ ID NO 634 / VL SEQ ID NO 382 (antibody, IgG4, V domains shown)
VH: B1 VH with F41P, P111Y
VL: B1 VL with V29L, Q42E, Q90N
notes: as for B1

Target: T1, recombinant human activated Factor VII (FVIIa) (human, UniProt P08709 61-212; P08709 213-466, ten glutamate residues of the Gla domain may be gamma-carboxylated)
T1 construct: chains tethered by a disulfide bond; also called Factor VIIa; rFVIIa
T1 sequence 1: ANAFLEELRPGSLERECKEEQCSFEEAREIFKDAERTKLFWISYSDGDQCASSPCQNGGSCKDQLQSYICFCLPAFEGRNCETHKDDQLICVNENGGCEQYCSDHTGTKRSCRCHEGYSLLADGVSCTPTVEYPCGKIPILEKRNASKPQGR
T1 sequence 2: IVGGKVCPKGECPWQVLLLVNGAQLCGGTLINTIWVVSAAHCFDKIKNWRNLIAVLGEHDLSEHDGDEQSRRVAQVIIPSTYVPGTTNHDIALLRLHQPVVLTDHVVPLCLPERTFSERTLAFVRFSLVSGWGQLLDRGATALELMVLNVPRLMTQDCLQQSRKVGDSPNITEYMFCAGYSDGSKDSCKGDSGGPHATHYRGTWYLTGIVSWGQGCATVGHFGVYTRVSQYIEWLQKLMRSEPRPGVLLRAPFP
Experiment: BLI (Fortebio)

First: B1
Second: B2
The Kd of the first is 3.1-fold higher: 2 nM for the first, 0.65 nM for the second.

First: B3
Second: B4
The Kd of the first is 56-fold higher: 53 nM for the first, 0.95 nM for the second. The second binds more tightly here.

First: B5
Second: B6
The Kd of the first is 2.3-fold higher: 18 nM for the first, 7.7 nM for the second. The second binds more tightly here.

B7 and B8 are within 1.5-fold of each other in Kd: 4.2 nM for the first, 4.3 nM for the second.

First: B9
Second: B10
The Kd of the first is 3.4-fold lower: 1.4 nM for the first, 4.8 nM for the second.

Compared with B11, B12 is 14-fold higher in Kd: 1.8 nM for the first, 26 nM for the second. The first binds more tightly here.

Compared with B13, B14 is 4.4-fold higher in Kd: 0.71 nM for the first, 3.1 nM for the second. The first binds more tightly here.

Going from B15 to B16, the Kd rises from 2.5 nM to 87 nM (35-fold).

First: B17
Second: B18
The Kd of the first is 1.9-fold higher: 9.2 nM for the first, 4.9 nM for the second.

Going from B19 to B20, the Kd falls from 880 nM to 2.1 nM (420-fold). The second binds more tightly here.

B21 and B22 are within 1.5-fold of each other in Kd: 0.82 nM for the first, 1.2 nM for the second.

Compared with B23, B24 is 4.1-fold lower in Kd: 4.5 nM for the first, 1.1 nM for the second. The second binds more tightly here.

B25 and B26 are within 1.5-fold of each other in Kd: 1.2 nM for the first, 1.4 nM for the second.

Going from B27 to B28, the Kd rises from 1 nM to 77 nM (77-fold). The first binds more tightly here.

B29 and B30 are within 1.5-fold of each other in Kd: 0.9 nM for the first, 0.86 nM for the second.

Compared with B31, B32 is 1.8-fold lower in Kd: 8.2 nM for the first, 4.6 nM for the second.

Compared with B33, B34 is 2-fold lower in Kd: 1.6 nM for the first, 0.79 nM for the second.

First: B35
Second: B36
The Kd of the first is 30-fold lower: 27 nM for the first, 820 nM for the second. The first binds more tightly here.

Compared with B37, B38 is 1.8-fold higher in Kd: 1 nM for the first, 1.8 nM for the second. The first binds more tightly here.

B39 and B40 are within 1.5-fold of each other in Kd: 1.2 nM for the first, 0.85 nM for the second.

Going from B41 to B42, the Kd rises from 87 nM to 2400 nM (28-fold).

Going from B43 to B44, the Kd falls from 1.4 nM to 0.72 nM (1.9-fold). The second binds more tightly here.

In the case of B45, the Kd is reported as 1.2 nM.

— US20220064329A1 (Novo Nordisk, published 2022)
